Results: US20250333441A1, “POLYPEPTIDE INHIBITORS AND USES THEREOF” (Neuracle Science Co., Ltd., priority 2021, published 2025)

Assays:
[1] = molecular target: binding of FAM19A5 protein to full-length ectodomain of the LRRC4B protein (amino acids 36-576)-hFc (Homo sapiens, UniProt Q7Z5A7); assay: Competitive inhibition assay, plate coated with full-length LRRC4B ectodomain; details: 100 nM coated ectodomain; FAM19A5 5 ng/mL; increasing concentrations
Experimental: Next, to further assess the role that the binding domain of the LRRC4B protein has on the interaction between FAM19A5 protein and members of the LRRC4 protein family, a competitive inhibition assay was used to determine whether different LRRC4B deletion constructs from Example 2 could inhibit the binding of FAM19A5 to the full-length ectodomain of the LRRC4B protein (i.e., amino acids 36-576 of SEQ ID NO: 2; SEQ ID NO: 5). Briefly, 100 nM of the full-length ectodomain of the LRRC4B protein was used to coat a plate, and then recombinant FAM19A5 protein (5 ng/mL) was added to the plate in combination with the following LRRC4B deletion constructs (increasing concentrations): (1) LRRC4B (453-576) (i.e., construct #11 in Table 6); (2) LRRC4B (453-576) mutant (comprises alanine substitutions at positions 488 and 489 of SEQ ID NO: 2; SEQ ID NO: 16); (3) LRRC4B (484-576) (i.e., construct #12 in Table 6); (4) LRRC4B (482-576); (5) LRRC4B (482-497); and (6) LRRC4B (498-576). The plates were incubated at 37° C., and then, the amount of FAM19A5 bound to the coated LRRC4B ectodomain protein was measured using H1RP-conjugated anti-FAM19A5 (1-65) antibody. […]

[2] = test system: mouse primary cortical neurons; assay: Neurite growth of primary cortical neurons (beta-tubulin III immunostaining); assay type: cell-based; details: 0.006 to 60 nM; day 3 post-initial culture; versus DMSO control
Experimental: Next, primary cortical neurons (day 1 postnatal) were cultured in vitro with varying concentrations (0.006 to 60 nM) of the LRRC4B (453-576) protein fragment (i.e., amino acid residues 453-576 of SEQ ID NO: 2; SEQ ID NO: 7), and then at day 3 post-initial culture, the effect on neurite growth was assessed by immunostaining the cells with anti-beta-tubulin III antibody. Cells cultured with DMSO (“Veh”) were used as control.
Mouse hippocampal neurons were treated with LRRC4B peptides at 1 and 2 DIV to determine neurite growth. It was measured by using 3 different parameters, which are total neurites length, number of primary and secondary neurites. After the neurons were stained with beta-tubulin III at 3 DIV, neurites length and branch points were measured using Fiji (Image J, NIH, Bethesda). Individual neurons were selected by hand and these parameters were counted using the Simple neurite tracer plugin. Mouse spinal motor neurons sampled at postnatal day 1 were treated with 10 nM of NS101 and LRRC4B-peptides (dFB-dWY-JM31 and dFB-DY-JM31) at 1 and 2 DIV and immunostained with Tau-5 antibody at 3 DIV. Total neurite length and number of somas in images were measured by Neurphology Image J plugin.

Chain of binding of FAM19A5 protein to full-length ectodomain of the LRRC4B protein (amino acids 36-576)-hFc (Q7Z5A7 44-132): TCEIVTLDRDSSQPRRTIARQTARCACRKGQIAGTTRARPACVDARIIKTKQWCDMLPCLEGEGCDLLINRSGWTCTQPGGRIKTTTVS

B1: LRRC4B (453-576): LRRC4B fragment, amino acids 453-576 of SEQ ID NO: 2 (SEQ ID NO: 7); used hFc-fused (protein)
chain: VSAVDPVAAGGTGSGGGGPGGSGGVGGGSGGYTYFTTVTVETLETQPGEEALQPRGTEKEPPGPTTDGVWGGGRPGDAAGPASSSTTAPAPRSSRPTEKAFTVPITDVTENALKDLDDVMKTTK
modifications: human Fc fusion in use
notes: used hFc-fused
inhibition of FAM19A5 binding to coated full-length LRRC4B ectodomain protein [1]: able to inhibit FAM19A5 protein from binding
neurite growth [2]: increased neurite growth in a dose-dependent manner
